± gives the standard deviation of the averaged measurements.
Experiment: total protein half-life in vivo (active degradation + dilution); higher = more stable protein
[1] = E. coli NCM3722 delta-smpB, growth: N-lim chemostat, doubling time 6 h
[2] = wild type E. coli NCM3722, growth: C-lim chemostat, doubling time 3 h
[3] = wild type E. coli NCM3722, growth: C-lim chemostat, doubling time 6 h
[4] = wild type E. coli NCM3722, growth: C-lim chemostat, doubling time 12 h
[5] = wild type E. coli NCM3722, growth: N-lim chemostat, doubling time 6 h
[6] = wild type E. coli NCM3722, growth: N-lim chemostat, doubling time 12 h
[7] = wild type E. coli NCM3722, growth: P-lim chemostat, doubling time 6 h
[8] = wild type E. coli NCM3722, growth: P-lim chemostat, doubling time 12 h
[9] = E. coli NCM3722 delta-clpP delta-lon delta-hslV, growth: N-lim chemostat, doubling time 6 h
[10] = E. coli NCM3722 delta-clpP, growth: N-lim chemostat, doubling time 6 h
[11] = E. coli NCM3722 delta-hslV, growth: N-lim chemostat, doubling time 6 h
[12] = E. coli NCM3722 delta-lon, growth: N-lim chemostat, doubling time 6 h

In the case of “MSYLNLRLYQRNTQCLHIRKHRLAGFFVRLVVACAFAAQAPLSSADLYFNPRFLADDPQAVADLSRFENGQELPPGTYRVDIYLNNGYMATRDVTFNTGDSEQGIVPCLTRAQLASMGLNTASVAGMNLLADDACVPLTTMVQDATAHLDVGQQRLNLTIPQAFMSNRARGYIPPELWDPGINAGLLNYNFSGNSVQNRIGGNSHYAYLNLQSGLNIGAWRLRDNTTWSYNSSDRSSGSKNKWQHINTWLERDIIPLRSRLTLGDGYTQGDIFDGINFRGAQLASDDNMLPDSQRGFAPVIHGIARGTAQVTIKQNGYDIYNSTVPPGPFTINDIYAAGNSGDLQVTIKEADGSTQIFTVPYSSVPLLQREGHTRYSITAGEYRSGNAQQEKTRFFQSTLLHGLPAGWTIYGGTQLADRYRAFNFGIGKNMGALGALSVDMTQANSTLPDDSQHDGQSVRFLYNKSLNESGTNIQLVGYRYSTSGYFNFADTTYSRMNGYNIETQDGVIQVKPKFTDYYNLAYNKRGKLQLTVTQQLGRTSTLYLSGSHQTYWGTSNVDEQFQAGLNTAFEDINWTLSYSLTKNAWQKGRDQMLALNVNIPFSHWLRSDSKSQWRHASASYSMSHDLNGRMTNLAGVYGTLLEDNNLSYSVQTGYAGGGDGNSGSTGYATLNYRGGYGNANIGYSHSDDIKQLYYGVSGGVLAHANGVTLGQPLNDTVVLVKAPGAKDAKVENQTGVRTDWRGYAVLPYATEYRENRVALDTNTLADNVDLDNAVANVVPTRGAIVRAEFKARVGIKLLMTLTHNNKPLPFGAMVTSESSQSSGIVADNGQVYLSGMPLAGKVQVKWGEEENAHCVANYQLPPESQQQLLTQLSAECR”, the “total protein half-life in vivo” value [1] is reported as 5.97 ± 0.21 h, the “total protein half-life in vivo” value [2] is reported as 3.14 h and the “total protein half-life in vivo” value [3] is reported as 6.02 h. The “total protein half-life in vivo” value [4] was > 16 h, the “total protein half-life in vivo” value [5] was > 8 h and the “total protein half-life in vivo” value [6] was > 16 h. For the same sequence, the “total protein half-life in vivo” value [7] was 6.2 h and the “total protein half-life in vivo” value [8] was > 16 h.
In the case of “MSYPSLFAPLDLGFTTLKNRVLMGSMHTGLEEYPDGAERLAAFYAERARHGVALIVSGGIAPDLTGVGMEGGAMLNDASQIPHHRTITEAVHQEGGKIALQILHTGRYSYQPHLVAPSALQAPINRFVPHELSHEEILQLIDNFARCAQLAREAGYDGVEVMGSEGYLINEFLTLRTNQRSDQWGGDYRNRMRFAVEVVRAVRERVGNDFIIIYRLSMLDLVEDGGTFAETVELAQAIEAAGATIINTGIGWHEARIPTIATPVPRGAFSWVTRKLKGHVSLPLVTTNRINDPQVADDILSRGDADMVSMARPFLADAELLSKAQSGRADEINTCIGCNQACLDQIFVGKVTSCLVNPRACHETKMPILPAVQKKNLAVVGAGPAGLAFAINAAARGHQVTLFDAHSEIGGQFNIAKQIPGKEEFYETLRYYRRMIEVTGVTLKLNHTVTADQLQAFDETILASGIVPRTPPIDGIDHPKVLSYLDVLRDKAPVGNKVAIIGCGGIGFDTAMYLSQPGESTSQNIAGFCNEWGIDSSLQQAGGLSPQGMQIPRSPRQIVMLQRKASKPGQGLGKTTGWIHRTTLLSRGVKMIPGVSYQKIDDDGLHVVINGETQVLAVDNVVICAGQEPNRALAQPLIDSGKTVHLIGGCDVAMELDARRAIAQGTRLALEI”, the “total protein half-life in vivo” value [9] is reported as 6.33 ± 2.2 h, the “total protein half-life in vivo” value [10] is reported as 3.52 ± 0.043 h and the “total protein half-life in vivo” value [1] is reported as 2.74 ± 0.96 h. The “total protein half-life in vivo” value [2] was 2.93 ± 0.18 h, the “total protein half-life in vivo” value [3] was 4.94 ± 0.13 h and the “total protein half-life in vivo” value [4] was 9.61 ± 2.1 h. The “total protein half-life in vivo” value [7] was 5.18 ± 0.79 h and the “total protein half-life in vivo” value [8] was 10.6 ± 0.13 h.
With “MSYQYVNVVTINKVAVIEFNYGRKLNALSKVFIDDLMQALSDLNRPEIRCIILRAPSGSKVFSAGHDIHELPSGGRDPLSYDDPLRQITRMIQKFPKPIISMVEGSVWGGAFEMIMSSDLIIAASTSTFSMTPVNLGVPYNLVGIHNLTRDAGFHIVKELIFTASPITAQRALAVGILNHVVEVEELEDFTLQMAHHISEKAPLAIAVIKEELRVLGEAHTMNSDEFERIQGMRRAVYDSEDYQEGMNAFLEKRKPNFVGH” the “total protein half-life in vivo” value [9] was 5.13 h, the “total protein half-life in vivo” value [2] was 2.48 h and the “total protein half-life in vivo” value [3] was 2.79 h. The “total protein half-life in vivo” value [4] was 6.64 h.
With “MSYTLPSLPYAYDALEPHFDKQTMEIHHTKHHQTYVNNANAALESLPEFANLPVEELITKLDQLPADKKTVLRNNAGGHANHSLFWKGLKKGTTLQGDLKAAIERDFGSVDNFKAEFEKAAASRFGSGWAWLVLKGDKLAVVSTANQDSPLMGEAISGASGFPIMGLDVWEHAYYLKFQNRRPDYIKEFWNVVNWDEAAARFAAKK” the “total protein half-life in vivo” value [9] was 6.4 ± 0.78 h, the “total protein half-life in vivo” value [10] was 5.61 ± 0.3 h and the “total protein half-life in vivo” value [11] was 5.5 ± 0.16 h. For the same sequence, the “total protein half-life in vivo” value [12] was 7.05 ± 1.2 h, the “total protein half-life in vivo” value [1] was 4.96 ± 1.2 h and the “total protein half-life in vivo” value [3] was 5.11 ± 0.91 h. The “total protein half-life in vivo” value [4] was 11.3 ± 1.7 h, the “total protein half-life in vivo” value [5] was 4.87 ± 1.1 h and the “total protein half-life in vivo” value [6] was 9.5 ± 0.12 h. For the same sequence, the “total protein half-life in vivo” value [7] was 5.31 ± 0.55 h and the “total protein half-life in vivo” value [8] was 11.3 ± 0.15 h.
For “MTAFSTLNVLPPAQLTNLNELGYLTMTPVQAAALPAILAGKDVRVQAKTGSGKTAAFGLGLLQQIDASLFQTQALVLCPTRELADQVAGELRRLARFLPNTKILTLCGGQPFGMQRDSLQHAPHIIVATPGRLLDHLQKGTVSLDALNTLVMDEADRMLDMGFSDAIDDVIRFAPASRQTLLFSATWPEAIAAISGRVQRDPLAIEIDSTDALPPIEQQFYETSSKGKIPLLQRLLSLHQPSSCVVFCNTKKDCQAVCDALNEVGQSALSLHGDLEQRDRDQTLVRFANGSARVLVATDVAARGLDIKSLELVVNFELAWDPEVHVHRIGRTARAGNSGLAISFCAPEEAQRANIISDMLQIKLNWQTPPANSSIATLEAEMATLCIDGGKKAKMRPGDVLGALTGDIGLDGADIGKIAVHPAHVYVAVRQAVAHKAWKQLQGGKIKGKTCRVRLLK”, the “total protein half-life in vivo” value [9] was 5.81 ± 1.4 h, the “total protein half-life in vivo” value [10] was 2.58 h and the “total protein half-life in vivo” value [3] was 3.78 h. For the same sequence, the “total protein half-life in vivo” value [4] was 8.81 ± 4.4 h and the “total protein half-life in vivo” value [7] was 2.59 h.
With “MTALALFDLLKPNYALATQVEFTDPEIVAEYITYPSPNGHGEVRGYLVKPAKMSGKTPAVVVVHENRGLNPYIEDVARRVAKAGYIALAPDGLSSVGGYPGNDDKGRELQQQVDPTN [Q7DFU6]” the “total protein half-life in vivo” value [9] was 2.25 h.
For “MTALNKKWLSGLVAGALMAVSVGTLAAEQKTLHIYNWSDYIAPDTVANFEKETGIKVVYDVFDSNEVLEGKLMAGSTGFDLVVPSASFLERQLTAGVFQPLDKSKLPEWKNLDPELLKLVAKHDPDNKFAMPYMWATTGIGYNVDKVKAVLGENAPVDSWDLILKPENLEKLKSCGVSFLDAPEEVFATVLNYLGKDPNSTKADDYTGPATDLLLKLRPNIRYFHSSQYINDLANGDICVAIGWAGDVWQASNRAKEAKNGVNVSFSIPKEGAMAFFDVFAMPADAKNKDEAYQFLNYLLRPDVVAHISDHVFYANANKAATPLVSAEVRENPGIYPPADVRAKLFTLKVQDPKIDRVRTRAWTKVKSGK”, the “total protein half-life in vivo” value [9] was 4.64 ± 0.23 h, the “total protein half-life in vivo” value [10] was 6.13 ± 0.89 h and the “total protein half-life in vivo” value [11] was 6.35 ± 0.38 h. For the same sequence, the “total protein half-life in vivo” value [12] was 7 ± 1.2 h, the “total protein half-life in vivo” value [1] was 5.81 ± 0.13 h and the “total protein half-life in vivo” value [2] was 2.94 ± 0.29 h. For the same sequence, the “total protein half-life in vivo” value [3] was 6.34 ± 0.41 h, the “total protein half-life in vivo” value [4] was 13 ± 0.15 h and the “total protein half-life in vivo” value [5] was 6.215 ± 0.018 h. The “total protein half-life in vivo” value [6] was 12.89 ± 0.11 h, the “total protein half-life in vivo” value [7] was 6.46 ± 0.65 h and the “total protein half-life in vivo” value [8] was 13.7 ± 1.1 h.
With “MTAPSQVLKIRRPDDWHLHLRDGDMLKTVVPYTSEIYGRAIVMPNLAPPVTTVEAAVAYRQRILDAVPAGHDFTPLMTCYLTDSLDPNELERGFNEGVFTAAKLYPANATTNSSHGVTSIDAIMPVLERMEKIGMPLLVHGEVTHADIDIFDREARFIESVMEPLRQRLTALKVVFEHITTKDAADYVRDGNERLAATITPQHLMFNRNHMLVGGVRPHLYCLPILKRNIHQQALRELVASGFNRVFLGTDSAPHARHRKESSCGCAGCFNAPTALGSYATVFEEMNALQHFEAFCSVNGPQFYGLPVNDTFIELVREEQQVAESIALTDDTLVPFLAGETVRWSVKQ” the “total protein half-life in vivo” value [9] was 5.58 ± 0.26 h, the “total protein half-life in vivo” value [10] was 5.17 ± 0.099 h and the “total protein half-life in vivo” value [11] was 5.194 ± 0.04 h. The “total protein half-life in vivo” value [12] was 5.46 ± 0.25 h, the “total protein half-life in vivo” value [1] was 4.78 ± 0.2 h and the “total protein half-life in vivo” value [2] was 2.85 ± 0.047 h. For the same sequence, the “total protein half-life in vivo” value [3] was 5.64 ± 0.76 h, the “total protein half-life in vivo” value [4] was 8.19 ± 2.8 h and the “total protein half-life in vivo” value [5] was 5.06 ± 0.61 h. The “total protein half-life in vivo” value [6] was 9.47 ± 0.78 h, the “total protein half-life in vivo” value [7] was 6.06 ± 0.17 h and the “total protein half-life in vivo” value [8] was 13.6 ± 0.86 h.
In the case of “MTARYIAIDWGSTNLRAWLYQGDHCLESRQSEAGVTRLNGKSPAAVLAEVTTDWREEKTPVVMAGMVGSNVGWKVAPYLSVPACFSSIGEQLTSVGDNIWIIPGLCVSHDDNHNVMRGEETQLIGARALAPSSLYVMPGTHCKWVQADSQQINDFRTVMTGELHHLLLNHSLIGAGLPPQENSADAFTAGLERGLNTPAILPQLFEVRASHVLGTLPREQVSEFLSGLLIGAEVASMRDYVAHQHAITLVAGTSLTARYQQAFQAMGCDVTAVAGDTAFQAGIRSIAHAVAN”, the “total protein half-life in vivo” value [2] is reported as 3.12 ± 0.4 h, the “total protein half-life in vivo” value [7] is reported as 4.75 h and the “total protein half-life in vivo” value [8] is reported as 7.85 h.
For “MTDDFAPDGQLAKAIPGFKPREPQRQMAVAVTQAIEKGQPLVVEAGTGTGKTYAYLAPALRAKKKVIISTGSKALQDQLYSRDLPTVSKALKYTGNVALLKGRSNYLCLERLEQQALAGGDLPVQILSDVILLRSWSNQTVDGDISTCVSVAEDSQAWPLVTSTNDNCLGSDCPMYKDCFVVKARKKAMDADVVVVNHHLFLADMVVKESGFGELIPEADVMIFDEAHQLPDIASQYFGQSLSSRQLLDLAKDITIAYRTELKDTQQLQKCADRLAQSAQDFRLQLGEPGYRGNLRELLANPQIQRAFLLLDDTLELCYDVAKLSLGRSALLDAAFERATLYRTRLKRLKEINQPGYSYWYECTSRHFTLALTPLSVADKFKELMAQKPGSWIFTSATLSVNDDLHHFTSRLGIEQAESLLLPSPFDYSRQALLCVLRNLPQTNQPGSARQLAAMLRPIIEANNGRCFMLCTSHAMMRDLAEQFRATMTLPVLLQGETSKGQLLQQFVSAGNALLVATSSFWEGVDVRGDTLSLVIIDKLPFTSPDDPLLKARMEDCRLRGGDPFDEVQLPDAVITLKQGVGRLIRDADDRGVLVICDNRLVMRPYGATFLASLPPAPRTRDIARAVRFLAIPSSR”, the “total protein half-life in vivo” value [9] was 5.98 ± 0.95 h and the “total protein half-life in vivo” value [2] was 3.37 h.

From the supplement of paper PMC11246515
